± gives the uncertainty stated by the source.
Experiment: abundance fitness (aPCA) (normalised: wild type 0, dead -1); higher = more abundant; growth selection in yeast, the domain comes from the species named
Conditions: Homo sapiens

Row | Substance | abundance fitness
1 | Lipoamide acyltransferase component of branched-chain alpha-keto acid dehydrogenase complex, mitochondrial S194N, P11182 | -0.287 ± 0.049
2 | Lipoamide acyltransferase component of branched-chain alpha-keto acid dehydrogenase complex, mitochondrial Q212P, P11182 | -0.017 ± 0.036
3 | Lipoamide acyltransferase component of branched-chain alpha-keto acid dehydrogenase complex, mitochondrial N185P, P11182 | -1.01 ± 0.17
4 | Lipoamide acyltransferase component of branched-chain alpha-keto acid dehydrogenase complex, mitochondrial G195P, P11182 | -0.682 ± 0.07
5 | Lipoamide acyltransferase component of branched-chain alpha-keto acid dehydrogenase complex, mitochondrial I200W, P11182 | -0.852 ± 0.063
6 | Lipoamide acyltransferase component of branched-chain alpha-keto acid dehydrogenase complex, mitochondrial G214M, P11182 | -0.154 ± 0.23
7 | Lipoamide acyltransferase component of branched-chain alpha-keto acid dehydrogenase complex, mitochondrial Y208S, P11182 | -0.095 ± 0.041
8 | Lipoamide acyltransferase component of branched-chain alpha-keto acid dehydrogenase complex, mitochondrial R178I, P11182 | 0.002 ± 0.059
9 | Lipoamide acyltransferase component of branched-chain alpha-keto acid dehydrogenase complex, mitochondrial P175Y, P11182 | -0.24 ± 0.066
10 | Lipoamide acyltransferase component of branched-chain alpha-keto acid dehydrogenase complex, mitochondrial I200A, P11182 | -0.66 ± 0.048
11 | Lipoamide acyltransferase component of branched-chain alpha-keto acid dehydrogenase complex, mitochondrial N185L, P11182 | -0.514 ± 0.26
12 | Lipoamide acyltransferase component of branched-chain alpha-keto acid dehydrogenase complex, mitochondrial A176E, P11182 | -0.043 ± 0.06
13 | Lipoamide acyltransferase component of branched-chain alpha-keto acid dehydrogenase complex, mitochondrial E210M, P11182 | -0.109 ± 0.044
14 | Lipoamide acyltransferase component of branched-chain alpha-keto acid dehydrogenase complex, mitochondrial T174F, P11182 | -0.403 ± 0.075
15 | Lipoamide acyltransferase component of branched-chain alpha-keto acid dehydrogenase complex, mitochondrial K187W, P11182 | -0.538 ± 0.05
16 | Lipoamide acyltransferase component of branched-chain alpha-keto acid dehydrogenase complex, mitochondrial V192D, P11182 | -0.159 ± 0.12
17 | Lipoamide acyltransferase component of branched-chain alpha-keto acid dehydrogenase complex, mitochondrial T213P, P11182 | -0.075 ± 0.065
18 | Lipoamide acyltransferase component of branched-chain alpha-keto acid dehydrogenase complex, mitochondrial I205Q, P11182 | -0.302 ± 0.048
19 | Lipoamide acyltransferase component of branched-chain alpha-keto acid dehydrogenase complex, mitochondrial L201E, P11182 | -0.038 ± 0.042
20 | Lipoamide acyltransferase component of branched-chain alpha-keto acid dehydrogenase complex, mitochondrial Y208I, P11182 | -0.072 ± 0.063
21 | Lipoamide acyltransferase component of branched-chain alpha-keto acid dehydrogenase complex, mitochondrial L209I, P11182 | 0.047 ± 0.17
22 | Lipoamide acyltransferase component of branched-chain alpha-keto acid dehydrogenase complex, mitochondrial A173G, P11182 | -0.287 ± 0.036
23 | Lipoamide acyltransferase component of branched-chain alpha-keto acid dehydrogenase complex, mitochondrial L209Y, P11182 | -0.232 ± 0.087
24 | Lipoamide acyltransferase component of branched-chain alpha-keto acid dehydrogenase complex, mitochondrial L188N, P11182 | -0.567 ± 0.095
25 | Lipoamide acyltransferase component of branched-chain alpha-keto acid dehydrogenase complex, mitochondrial M182A, P11182 | 0.018 ± 0.072

Row | Substance | abundance fitness
26 | Lipoamide acyltransferase component of branched-chain alpha-keto acid dehydrogenase complex, mitochondrial P175E, P11182 | 0.037 ± 0.047
27 | Lipoamide acyltransferase component of branched-chain alpha-keto acid dehydrogenase complex, mitochondrial S189Y, P11182 | -0.258 ± 0.19
28 | Lipoamide acyltransferase component of branched-chain alpha-keto acid dehydrogenase complex, mitochondrial K187G, P11182 | -0.304 ± 0.036
29 | Lipoamide acyltransferase component of branched-chain alpha-keto acid dehydrogenase complex, mitochondrial L188P, P11182 | -0.412 ± 0.047
30 | Lipoamide acyltransferase component of branched-chain alpha-keto acid dehydrogenase complex, mitochondrial A176K, P11182 | -0.312 ± 0.065
31 | Lipoamide acyltransferase component of branched-chain alpha-keto acid dehydrogenase complex, mitochondrial E210T, P11182 | -0.041 ± 0.056
32 | Lipoamide acyltransferase component of branched-chain alpha-keto acid dehydrogenase complex, mitochondrial G214K, P11182 | 0.129 ± 0.076
33 | Lipoamide acyltransferase component of branched-chain alpha-keto acid dehydrogenase complex, mitochondrial G195S, P11182 | -0.444 ± 0.08
34 | Lipoamide acyltransferase component of branched-chain alpha-keto acid dehydrogenase complex, mitochondrial G214Y, P11182 | -0.189 ± 0.12
35 | Lipoamide acyltransferase component of branched-chain alpha-keto acid dehydrogenase complex, mitochondrial E190W, P11182 | -0.192 ± 0.046
36 | Lipoamide acyltransferase component of branched-chain alpha-keto acid dehydrogenase complex, mitochondrial L209T, P11182 | -0.131 ± 0.058
37 | Lipoamide acyltransferase component of branched-chain alpha-keto acid dehydrogenase complex, mitochondrial I186F, P11182 | -0.9 ± 0.18
38 | Lipoamide acyltransferase component of branched-chain alpha-keto acid dehydrogenase complex, mitochondrial I186L, P11182 | -0.32 ± 0.057
39 | Lipoamide acyltransferase component of branched-chain alpha-keto acid dehydrogenase complex, mitochondrial D197V, P11182 | -0.728 ± 0.061
40 | Lipoamide acyltransferase component of branched-chain alpha-keto acid dehydrogenase complex, mitochondrial L201C, P11182 | -0.243 ± 0.064
41 | Lipoamide acyltransferase component of branched-chain alpha-keto acid dehydrogenase complex, mitochondrial N207Q, P11182 | 0.035 ± 0.066
42 | Nanos homolog 2 R73E, P60321 | 0.102 ± 0.067
43 | Lipoamide acyltransferase component of branched-chain alpha-keto acid dehydrogenase complex, mitochondrial Q212N, P11182 | 0.124 ± 0.14
44 | Lipoamide acyltransferase component of branched-chain alpha-keto acid dehydrogenase complex, mitochondrial L180C, P11182 | -0.421 ± 0.055
45 | Lipoamide acyltransferase component of branched-chain alpha-keto acid dehydrogenase complex, mitochondrial K202T, P11182 | -0.211 ± 0.062
46 | Lipoamide acyltransferase component of branched-chain alpha-keto acid dehydrogenase complex, mitochondrial K202C, P11182 | -0.282 ± 0.086
47 | Lipoamide acyltransferase component of branched-chain alpha-keto acid dehydrogenase complex, mitochondrial N207A, P11182 | 0.034 ± 0.04
48 | Lipoamide acyltransferase component of branched-chain alpha-keto acid dehydrogenase complex, mitochondrial L201R, P11182 | -0.209 ± 0.034
49 | Nanos homolog 2 V97I, P60321 | 0.008 ± 0.12
50 | Lipoamide acyltransferase component of branched-chain alpha-keto acid dehydrogenase complex, mitochondrial L206K, P11182 | -0.113 ± 0.065

Source: the Human Domainome abundance scans (Beltran et al. 2025)
